Columns and labels:
[1] = biological target: mouse FcRn, biotinylated extracellular domain (FcRnECDHis-B2M-BIO) (mouse) (UniProt Q61559); assay: ELISA on coated mouse FcRn at pH 6.0, apparent affinity
[2] = biological target: human complement component C1q (human) (UniProt P02745); assay: cell-based or functional assay
[3] = biological target: human complement component C1q (human) (UniProt P02745); assay: FACS, C1q on antibody-opsonized Daudi cells, average
[4] = biological target: human complement component C1q (human) (UniProt P02745); assay: FACS, C1q on antibody-opsonized Daudi cells, Exp. 7
[5] = biological target: human complement component C1q (human) (UniProt P02745); assay: FACS, C1q on antibody-opsonized Daudi cells, Exp. 10
[6] = biological target: human complement component C1q (human) (UniProt P02745); assay: FACS, C1q on antibody-opsonized Daudi cells, ranking table
[7] = biological target: human complement component C1q (human) (UniProt P02745); assay: FACS, C1q on antibody-opsonized Daudi cells, Exp. 1
[8] = biological target: human complement component C1q (human) (UniProt P02745); assay: C1q ELISA, antibody coated in dilution series, 3% pooled human serum
[9] = biological target: human complement component C1q (human) (UniProt P02745); assay: FACS, C1q on antibody-opsonized Daudi cells, Exp. 2
[10] = biological target: human complement component C1q (human) (UniProt P02745); assay: FACS, C1q on antibody-opsonized Raji cells, Exp. 3
[11] = biological target: human complement component C1q (human) (UniProt P02745); assay: FACS, C1q on antibody-opsonized Daudi cells, Exp. 4
[12] = biological target: human complement component C1q (human) (UniProt P02745); assay: FACS, C1q on antibody-opsonized Raji cells, Exp. 2
[13] = biological target: human complement component C1q (human) (UniProt P02745); assay: FACS, C1q on antibody-opsonized Raji cells, Exp. 1
[14] = biological target: human complement component C1q (human) (UniProt P02745); assay: FACS, C1q on antibody-opsonized Raji cells, average
[15] = biological target: human complement component C1q (human) (UniProt P02745); assay: FACS, C1q on antibody-opsonized Daudi cells, Exp. 3
[16] = biological target: human complement component C1q (human) (UniProt P02745); assay: FACS, C1q on antibody-opsonized Daudi cells, Exp. 6
[17] = biological target: human complement component C1q (human) (UniProt P02745); assay: FACS, C1q on antibody-opsonized Daudi cells, Exp. 11

Sequence of human complement component C1q (human) (P02745 23-245 limits assumed, chain 1 of 3): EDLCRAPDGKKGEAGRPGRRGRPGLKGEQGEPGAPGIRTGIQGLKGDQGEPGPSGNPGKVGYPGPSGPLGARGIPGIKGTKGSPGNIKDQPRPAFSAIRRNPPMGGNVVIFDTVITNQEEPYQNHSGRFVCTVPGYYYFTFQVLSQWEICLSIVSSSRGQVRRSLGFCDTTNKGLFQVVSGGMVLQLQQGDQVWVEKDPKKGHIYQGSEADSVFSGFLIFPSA
Sequence of human complement component C1q (human) (P02746 28-253 limits assumed, chain 2 of 3, further chain): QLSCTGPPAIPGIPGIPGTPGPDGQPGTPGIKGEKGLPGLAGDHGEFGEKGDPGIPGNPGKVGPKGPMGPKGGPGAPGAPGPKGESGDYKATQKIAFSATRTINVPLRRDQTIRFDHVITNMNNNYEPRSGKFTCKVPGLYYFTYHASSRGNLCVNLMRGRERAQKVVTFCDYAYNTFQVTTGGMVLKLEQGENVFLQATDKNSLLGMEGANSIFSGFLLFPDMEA
Sequence of human complement component C1q (human) (P02747 29-245 limits assumed, chain 3 of 3, further chain): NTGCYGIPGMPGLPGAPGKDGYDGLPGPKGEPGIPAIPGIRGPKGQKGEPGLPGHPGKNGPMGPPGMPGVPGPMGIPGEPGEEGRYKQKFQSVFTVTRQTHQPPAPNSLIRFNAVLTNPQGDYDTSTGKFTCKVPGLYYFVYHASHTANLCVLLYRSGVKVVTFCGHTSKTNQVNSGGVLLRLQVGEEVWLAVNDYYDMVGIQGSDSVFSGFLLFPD
Sequence of mouse FcRn, biotinylated extracellular domain (FcRnECDHis-B2M-BIO) (mouse) (Q61559 22-297): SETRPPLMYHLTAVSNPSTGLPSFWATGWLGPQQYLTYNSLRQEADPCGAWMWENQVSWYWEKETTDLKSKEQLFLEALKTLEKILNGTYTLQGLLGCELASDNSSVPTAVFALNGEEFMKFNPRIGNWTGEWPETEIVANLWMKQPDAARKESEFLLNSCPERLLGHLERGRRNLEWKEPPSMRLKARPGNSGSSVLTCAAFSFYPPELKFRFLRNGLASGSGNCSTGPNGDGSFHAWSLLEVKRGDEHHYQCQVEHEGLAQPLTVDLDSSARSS

Substance: IgG1-005-P247G (antibody)
- EC50 [1]: 0.28 µg/mL

Substance: IgG1-7D8-E345R (antibody)
- CH50 (C1q concentration giving 50% lysis), CDC on Raji cells in C1q-depleted serum [2]: 0.03 µg/mL
- EC50 of CDC on Daudi cells, 20% normal human serum [2]: 0.04 µg/mL
- EC50 of CDC on Raji cells, 20% normal human serum [2]: 0.16 µg/mL
- Kd [3]: 1.7 nM
- Kd [4]: 0.17 nM
- Kd [5]: 2.7 nM
- Kd [6]: 1.7 nM

Substance: IgG1-005-E345Q (antibody)
- EC50 [1]: 0.12 µg/mL

Substance: IgG1-005-E345N (antibody)
- EC50 [1]: 0.11 µg/mL

Substance: IgG1-005-E430G (antibody)
- EC50 [1]: 0.13 µg/mL

Substance: IgG1-005-E345K (antibody)
- EC50 [1]: 0.1 µg/mL

Substance: IgG1-7D8-K322A (antibody)
- CH50 (C1q concentration giving 50% lysis), CDC on Raji cells in C1q-depleted serum [2]: > 30 µg/mL
- EC50 of CDC on Daudi cells, 20% normal human serum [2]: > 30 µg/mL
- EC50 of CDC on Raji cells, 20% normal human serum [2]: > 30 µg/mL

Substance: IgG1-7D8-I253D (antibody)
- Kd [7]: 146 nM
- EC50 [8]: 3.84 µg/mL
- CH50 (C1q concentration giving 50% lysis), CDC on Raji cells in C1q-depleted serum [2]: > 30 µg/mL
- EC50 of CDC on Daudi cells, 20% normal human serum [2]: 3.33 µg/mL
- EC50 of CDC on Raji cells, 20% normal human serum [2]: > 30 µg/mL
- Kd [3]: 157 nM
- Kd [9]: 176 nM
- Kd [10]: 85.2 nM
- Kd [11]: 205 nM
- Kd [12]: 172 nM
- Kd [13]: 70 nM
- Kd [6]: 157 nM

Substance: IgG1-7D8-Q311A (antibody)
- Kd [7]: 14.3 nM
- CH50 (C1q concentration giving 50% lysis), CDC on Raji cells in C1q-depleted serum [2]: 0.63 µg/mL
- EC50 of CDC on Daudi cells, 20% normal human serum [2]: 0.42 µg/mL
- EC50 of CDC on Raji cells, 20% normal human serum [2]: 1.72 µg/mL
- Kd [3]: 10.7 nM
- Kd [9]: 13 nM
- Kd [10]: 12.2 nM
- Kd [12]: 10.1 nM
- Kd [13]: 4.1 nM
- Kd [6]: 10.7 nM

Substance: IgG1-7D8-N434A (antibody)
- Kd [14]: 44.9 nM
- Kd [7]: 36.7 nM
- EC50 [8]: 2.12 µg/mL
- CH50 (C1q concentration giving 50% lysis), CDC on Raji cells in C1q-depleted serum [2]: 21.2 µg/mL
- EC50 of CDC on Daudi cells, 20% normal human serum [2]: 1.77 µg/mL
- Kd [3]: 42.6 nM
- Kd [9]: 47.8 nM
- Kd [10]: 35.2 nM
- Kd [15]: 28.3 nM
- Kd [11]: 48.7 nM
- Kd [12]: 46.7 nM
- Kd [13]: 35.9 nM
- Kd [6]: 42.6 nM

Substance: IgG1-7D8-H435R (antibody)
- EC50 [8]: 1.24 µg/mL
- CH50 (C1q concentration giving 50% lysis), CDC on Raji cells in C1q-depleted serum [2]: 0.24 µg/mL
- EC50 of CDC on Daudi cells, 20% normal human serum [2]: 0.28 µg/mL
- EC50 of CDC on Raji cells, 20% normal human serum [2]: 0.61 µg/mL
- Kd [9]: 8.7 nM
- Kd [15]: 2.6 nM
- Kd [11]: 3 nM

Substance: IgG1-7D8-H433A (antibody)
- Kd [14]: 97.9 nM
- Kd [7]: 168 nM
- EC50 [8]: 3.33 µg/mL
- CH50 (C1q concentration giving 50% lysis), CDC on Raji cells in C1q-depleted serum [2]: > 30 µg/mL
- EC50 of CDC on Daudi cells, 20% normal human serum [2]: 3.44 µg/mL
- EC50 of CDC on Raji cells, 20% normal human serum [2]: 22.6 µg/mL
- Kd [3]: 118 nM
- Kd [9]: 76.1 nM
- Kd [10]: 84 nM
- Kd [15]: 45.2 nM
- Kd [11]: 181 nM
- Kd [12]: 85 nM
- Kd [13]: 125 nM
- Kd [6]: 118 nM

Substance: IgG1-7D8-H435A (antibody)
- Kd [14]: 7.3 nM
- Kd [7]: 7.8 nM
- EC50 [8]: 2.27 µg/mL
- CH50 (C1q concentration giving 50% lysis), CDC on Raji cells in C1q-depleted serum [2]: 0.96 µg/mL
- EC50 of CDC on Daudi cells, 20% normal human serum [2]: 0.81 µg/mL
- EC50 of CDC on Raji cells, 20% normal human serum [2]: 2.22 µg/mL
- Kd [9]: 10.9 nM
- Kd [15]: 5 nM
- Kd [11]: 10.9 nM
- Kd [12]: 9.9 nM
- Kd [13]: 5.4 nM

Substance: IgG1-7D8-G385D (antibody)
- CH50 (C1q concentration giving 50% lysis), CDC on Raji cells in C1q-depleted serum [2]: 22.5 µg/mL
- EC50 of CDC on Daudi cells, 20% normal human serum [2]: 2.12 µg/mL
- EC50 of CDC on Raji cells, 20% normal human serum [2]: 17.4 µg/mL
- Kd [3]: 74 nM
- Kd [16]: 77 nM
- Kd [6]: 74 nM
- Kd [17]: 71 nM

Substance: IgG1-005-E345R (antibody)
- EC50 [1]: 0.09 µg/mL

Substance: IgG1-7D8-K439E + IgG1-7D8-S440K mix
- CH50 (C1q concentration giving 50% lysis), CDC on Raji cells in C1q-depleted serum [2]: 1.33 µg/mL
- EC50 of CDC on Daudi cells, 20% normal human serum [2]: 0.48 µg/mL
- EC50 of CDC on Raji cells, 20% normal human serum [2]: 1.58 µg/mL
- Kd [16]: 3.6 nM

Substance: IgG1-005-E430S (antibody)
- EC50 [1]: 0.14 µg/mL

Substance: IgG1-005-E430T (antibody)
- EC50 [1]: 0.15 µg/mL

Substance: IgG1-7D8-S440K (antibody)
- CH50 (C1q concentration giving 50% lysis), CDC on Raji cells in C1q-depleted serum [2]: > 30 µg/mL
- EC50 of CDC on Daudi cells, 20% normal human serum [2]: 1.78 µg/mL
- EC50 of CDC on Raji cells, 20% normal human serum [2]: 19.5 µg/mL
- Kd [3]: 109 nM
- Kd [16]: 170 nM
- Kd [6]: 109 nM
- Kd [17]: 48 nM

Substance: IgG1-005-E430H (antibody)
- EC50 [1]: 0.11 µg/mL

Substance: IgG1-7D8-K439E (antibody)
- CH50 (C1q concentration giving 50% lysis), CDC on Raji cells in C1q-depleted serum [2]: > 30 µg/mL
- EC50 of CDC on Daudi cells, 20% normal human serum [2]: 2.34 µg/mL
- EC50 of CDC on Raji cells, 20% normal human serum [2]: 21.5 µg/mL
- Kd [3]: 361 nM
- Kd [16]: 418 nM
- Kd [6]: 361 nM
- Kd [17]: 304 nM

Substance: IgG1-7D8-I253A (antibody)
- Kd [14]: 18.6 nM
- Kd [7]: 33 nM
- EC50 [8]: 2.56 µg/mL
- CH50 (C1q concentration giving 50% lysis), CDC on Raji cells in C1q-depleted serum [2]: 11.2 µg/mL
- EC50 of CDC on Daudi cells, 20% normal human serum [2]: 0.79 µg/mL
- EC50 of CDC on Raji cells, 20% normal human serum [2]: 5.55 µg/mL
- Kd [3]: 21.5 nM
- Kd [9]: 20.4 nM
- Kd [10]: 20.1 nM
- Kd [15]: 16.7 nM
- Kd [11]: 15.7 nM
- Kd [12]: 25.7 nM
- Kd [6]: 21.5 nM

Substance: IgG1-005 (HuMab 005, wild type) (antibody)
- EC50 [1]: 0.14 µg/mL

Substance: IgG1-005-S440K (antibody)
- EC50 [1]: 0.11 µg/mL

Substance: IgG1-005-S440Y (antibody)
- EC50 [1]: 0.15 µg/mL

Substance: IgG1-7D8 (HuMab-7D8, wild type) (antibody)
- Kd [7]: 7.7 nM
- EC50 [8]: 2.05 µg/mL
- CH50 (C1q concentration giving 50% lysis), CDC on Raji cells in C1q-depleted serum [2]: 0.49 µg/mL
- EC50 of CDC on Daudi cells, 20% normal human serum [2]: 0.48 µg/mL
- EC50 of CDC on Raji cells, 20% normal human serum [2]: 1.54 µg/mL
- Kd [10]: 10.9 nM
- Kd [13]: 4.8 nM
- Kd [5]: 11.8 nM
- Kd [17]: 13.3 nM

Substance: IgG1-005-E430F (antibody)
- EC50 [1]: 0.11 µg/mL

Substance: IgG1-7D8-I253Y (antibody)
- Kd [14]: 38.7 nM
- Kd [7]: 58.5 nM
- EC50 [8]: 2.21 µg/mL
- CH50 (C1q concentration giving 50% lysis), CDC on Raji cells in C1q-depleted serum [2]: 16.1 µg/mL
- EC50 of CDC on Daudi cells, 20% normal human serum [2]: 1.77 µg/mL
- EC50 of CDC on Raji cells, 20% normal human serum [2]: 28.9 µg/mL
- Kd [3]: 41.3 nM
- Kd [9]: 37 nM
- Kd [10]: 46.2 nM
- Kd [15]: 21.1 nM
- Kd [11]: 48.7 nM
- Kd [12]: 45.6 nM
- Kd [13]: 24.3 nM
- Kd [6]: 41.3 nM

Substance: IgG1-005-E345Y (antibody)
- EC50 [1]: 0.13 µg/mL

Substance: IgG1-7D8-Y436D (antibody)
- CH50 (C1q concentration giving 50% lysis), CDC on Raji cells in C1q-depleted serum [2]: > 30 µg/mL
- EC50 of CDC on Daudi cells, 20% normal human serum [2]: 1.88 µg/mL
- EC50 of CDC on Raji cells, 20% normal human serum [2]: 16.6 µg/mL
- Kd [3]: 468 nM
- Kd [16]: 431 nM
- Kd [6]: 468 nM
- Kd [17]: 504 nM

Substance: IgG1-005-K439E (antibody)
- EC50 [1]: 0.31 µg/mL
